Results: the supplement of paper PMC7125110
± gives the standard error. This sample holds only a part of the variants without activity.

B1: glmS ribozyme (parent)
chain: AUAAAAGCGCCAGAACUACAGAAAUGUAGUUGACGAGGAGGAGGUUUAUCGAAUUUUCGGCGGAUGCCUCCAAA

Tests used:
Conditions in all cases: with glucosamine-6-phosphate
glucosamine-6-phosphate [1] = variants of: B1; assay: self-cleavage kobs at 40 uM GlcN6P; higher = faster cleavage; RNA array
Method in brief: (§1)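 Barcoded ribozyme variants were transcribed in situ on sequenced MiSeq chips by E. coli RNA polymerase. At 37 °C, a hybridised Cy3 probe tracked them while glucosamine-6-phosphate (40 μM to 10 mM) in HEPES/KCl/Mg(OAc)2 buffer flowed in and tiles were imaged over ~14 h. Per-tile medians of signals normalised to baseline and to non-cleaving reference variants were fit to one- or two-exponential decays, giving kobs. kcat and KM came from weighted Michaelis–Menten fits across concentrations.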

glucosamine-6-phosphate [2] = variants of: B1; assay: self-cleavage kobs at 2500 uM GlcN6P; higher = faster cleavage; RNA array
Method in brief: as §1

glucosamine-6-phosphate [3] = variants of: B1; assay: self-cleavage kobs at 10000 uM GlcN6P; higher = faster cleavage; RNA array
Method in brief: as §1

glucosamine-6-phosphate [4] = variants of: B1; assay: self-cleavage kobs at 640 uM GlcN6P; higher = faster cleavage; RNA array
Method in brief: as §1

glucosamine-6-phosphate [5] = variants of: B1; assay: self-cleavage kobs at 160 uM GlcN6P; higher = faster cleavage; RNA array
Method in brief: as §1

Variant | self-cleavage kobs at 40 uM GlcN6P (glucosamine-6-phosphate [1]) [s⁻¹] | self-cleavage kobs at 2500 uM GlcN6P (glucosamine-6-phosphate [2]) [s⁻¹] | self-cleavage kobs at 10000 uM GlcN6P (glucosamine-6-phosphate [3]) [s⁻¹] | self-cleavage kobs at 640 uM GlcN6P (glucosamine-6-phosphate [4]) [s⁻¹] | self-cleavage kobs at 160 uM GlcN6P (glucosamine-6-phosphate [5]) [s⁻¹]
G51A U65A | < 1e-05 | < 1e-05 | < 1e-05 |  | 
U31A U56A | 0.000218 ± 3.2e-05 | 0.00123 ± 0.0005 | 0.00967 ± 0.0011 | 0.00221 ± 0.00061 | 
A14U C16U | 0.00025 ± 3.2e-05 | 0.00183 ± 0.0004 | 0.00789 ± 0.001 | 0.00297 ± 0.00042 | 0.000555 ± 0.00011
C8G G43U | < 1e-05 | < 1e-05 |  | < 1e-05 | 
C11U G35C | < 1e-05 |  |  |  | 
A33U G37U C50G U69A | 8.34e-05 ± 2.3e-05 |  | 0.000105 ± 2.5e-05 |  | 
G38C G44U C58U A64U | < 1e-05 |  | < 1e-05 |  | 
A6U C34G | < 1e-05 | < 1e-05 | < 1e-05 |  | < 1e-05
A12C U31A C34U A36C A52G C58A G63U | < 1e-05 |  | < 1e-05 |  | 
C16G G29U U46G | 4.6e-05 ± 1.8e-05 |  | 0.00136 ± 0.00039 |  | 
A48G G63U | < 1e-05 | < 1e-05 | < 1e-05 |  | 
G13A C16G U65G | < 1e-05 |  | 3.8e-05 ± 1.6e-05 |  | 
G37C C50U G66U | < 1e-05 |  | < 1e-05 |  | 
A39G U45G A48G | < 1e-05 |  | 6.43e-05 ± 1.9e-05 |  | 
A12U C70A | 8.79e-05 ± 1.1e-05 | 0.00049 ± 7e-05 | 0.00179 ± 0.00036 | 0.00047 ± 5.2e-05 | 0.000177 ± 2.9e-05
G26U C50G A52C U56G G66C C67U C71U | 0.000243 ± 7.9e-05 |  | 0.000101 ± 2.7e-05 | 0.000548 ± 0.00021 | 
U46G G66C | 0.000227 ± 3.8e-05 | 0.00594 ± 0.0017 |  | 0.00135 ± 0.00038 | 0.000418 ± 0.00013
G13C C16U C67A | < 1e-05 |  | 3.41e-05 ± 1.2e-05 |  | 
G13C G37A C50U G59C | < 1e-05 | < 1e-05 |  | < 1e-05 | 
A6U U46G C58A | < 1e-05 |  |  |  | 
G38U G59C | < 1e-05 | < 1e-05 |  | < 1e-05 | 
C8G C50A C61G G63A C71G | 8.24e-05 ± 3.5e-05 |  | 0.000367 ± 0.00014 |  | 
G32C A33U | < 1e-05 | < 1e-05 |  | < 1e-05 | < 1e-05
G9C C16U U47G C61U | < 1e-05 |  | < 1e-05 |  | 

Variant | self-cleavage kobs at 40 uM GlcN6P (glucosamine-6-phosphate [1]) [s⁻¹] | self-cleavage kobs at 2500 uM GlcN6P (glucosamine-6-phosphate [2]) [s⁻¹] | self-cleavage kobs at 10000 uM GlcN6P (glucosamine-6-phosphate [3]) [s⁻¹] | self-cleavage kobs at 640 uM GlcN6P (glucosamine-6-phosphate [4]) [s⁻¹] | self-cleavage kobs at 160 uM GlcN6P (glucosamine-6-phosphate [5]) [s⁻¹]
A12C C16U G41U | 6.93e-05 ± 2e-05 | 0.000447 ± 9.6e-05 | 0.000649 ± 0.00015 | 0.000163 ± 3.3e-05 | 
A12U C50G G51C | < 1e-05 |  |  |  | 
C10U G29U U56G | < 1e-05 |  | < 1e-05 |  | 
G7C G29C G35U | < 1e-05 |  | < 1e-05 | < 1e-05 | 
A53G C67A | 0.000314 ± 3.3e-05 | 0.000612 ± 0.00025 | 0.00957 ± 0.0018 | 0.00067 ± 0.00014 | 
A42G C67G | 0.000618 ± 0.00013 | 0.00814 ± 0.0014 | 0.0123 ± 0.0031 | 0.00232 ± 0.00045 | 0.00112 ± 0.00024
A33C G51A G66A C70G | < 1e-05 |  |  |  | 
G7U U49A | < 1e-05 | < 1e-05 | < 1e-05 | < 1e-05 | < 1e-05
U55G U65A C67A | 6.53e-05 ± 1.8e-05 |  | 9.95e-05 ± 3e-05 |  | 
C16G A36C | < 1e-05 |  | < 1e-05 | < 1e-05 | 
A12U G32U A53G | < 1e-05 | 0.000144 ± 3.6e-05 | 0.000231 ± 6.4e-05 |  | 
U46G U49C | < 1e-05 | < 1e-05 | < 1e-05 | < 1e-05 | < 1e-05
A39C U65G C70G | < 1e-05 |  | < 1e-05 | < 1e-05 | < 1e-05
A6G G35A A39C G62C U65G C67A | < 1e-05 |  |  |  | 
C16U C50G G59A C68A | 4.62e-05 ± 2.3e-05 |  | 4.07e-05 ± 1.3e-05 |  | 
A12U A15U C16A G41A G66A | < 1e-05 |  |  |  | 
C16A G41C | < 1e-05 |  |  | < 1e-05 | < 1e-05
C11G U57G | < 1e-05 | < 1e-05 | < 1e-05 |  | < 1e-05
G40A U47G | 8.03e-05 ± 1.9e-05 | 0.00069 ± 0.00018 | 0.00267 ± 0.0004 | 0.000547 ± 0.00011 | 0.000122 ± 2.3e-05
A15C A36G | < 1e-05 | < 1e-05 | < 1e-05 | < 1e-05 | < 1e-05
C34G G51C | < 1e-05 |  | < 1e-05 | < 1e-05 | 
C10G G43C U46A G60A G62C | < 1e-05 |  |  |  | 
G13U C34A U49A U65C | < 1e-05 |  | < 1e-05 |  | 
C61A G62U | < 1e-05 |  | < 1e-05 | < 1e-05 | < 1e-05

Variant | self-cleavage kobs at 40 uM GlcN6P (glucosamine-6-phosphate [1]) [s⁻¹] | self-cleavage kobs at 2500 uM GlcN6P (glucosamine-6-phosphate [2]) [s⁻¹] | self-cleavage kobs at 10000 uM GlcN6P (glucosamine-6-phosphate [3]) [s⁻¹] | self-cleavage kobs at 640 uM GlcN6P (glucosamine-6-phosphate [4]) [s⁻¹] | self-cleavage kobs at 160 uM GlcN6P (glucosamine-6-phosphate [5]) [s⁻¹]
A6U A12G C16U G38A U54A C68A | 8.86e-05 ± 3.6e-05 | 0.000395 ± 0.00011 | 8.53e-05 ± 1.8e-05 | 0.000335 ± 0.0001 | 
A12G G44C C67G | < 1e-05 |  | 0.000225 ± 4.3e-05 |  | 
G29U A33U G35A U69A | 0.000163 ± 6.6e-05 |  | 6.21e-05 ± 3e-05 |  | 
C8U G44U | < 1e-05 | < 1e-05 | < 1e-05 | < 1e-05 | < 1e-05
C34A A48C | < 1e-05 | < 1e-05 | < 1e-05 |  | 
U49G U55G U65G | < 1e-05 |  | 6.42e-05 ± 1.5e-05 |  | 
C10G A14G C16A G41C | < 1e-05 |  | < 1e-05 |  | 
C11U A33G U69A | < 1e-05 |  | < 1e-05 |  | 
A36G G63A C67G | < 1e-05 |  | < 1e-05 |  | 
C10G C16U | < 1e-05 |  |  |  | < 1e-05
A48C C67U C71A | < 1e-05 |  | < 1e-05 |  | 
A15U G29C A48G C71A | < 1e-05 |  |  |  | 
G13A U46G | < 1e-05 |  | 0.00013 ± 3e-05 |  | < 1e-05
G35A C50G C71U | 0.000138 ± 3.5e-05 | 8.9e-05 ± 3.1e-05 | 0.000191 ± 3.6e-05 |  | 
A14U U46G G63A U65A C70G C71G | 4.47e-05 ± 2e-05 |  |  |  | 
A33C G35C | < 1e-05 |  | < 1e-05 | < 1e-05 | < 1e-05
A48G G51U | < 1e-05 |  |  |  | < 1e-05
C10A G43A | < 1e-05 |  |  |  | 
A33G G66A | < 1e-05 |  | < 1e-05 |  | < 1e-05
C8U A64U | < 1e-05 | < 1e-05 | < 1e-05 | < 1e-05 | < 1e-05
C34A C58U | < 1e-05 | < 1e-05 | < 1e-05 | < 1e-05 | < 1e-05
C50A C58U C61U G63U | < 1e-05 |  |  |  | 
A6G A12C C71A | < 1e-05 |  |  |  | 
A15C U69C | 0.000108 ± 2.5e-05 | 0.000165 ± 4.4e-05 | 0.00087 ± 0.00022 | 0.000226 ± 8.5e-05 | 

Variant | self-cleavage kobs at 40 uM GlcN6P (glucosamine-6-phosphate [1]) [s⁻¹] | self-cleavage kobs at 2500 uM GlcN6P (glucosamine-6-phosphate [2]) [s⁻¹] | self-cleavage kobs at 10000 uM GlcN6P (glucosamine-6-phosphate [3]) [s⁻¹] | self-cleavage kobs at 640 uM GlcN6P (glucosamine-6-phosphate [4]) [s⁻¹] | self-cleavage kobs at 160 uM GlcN6P (glucosamine-6-phosphate [5]) [s⁻¹]
A12G C50U | < 1e-05 |  | < 1e-05 |  | < 1e-05
C10A U46G C68G | 0.000169 ± 4.8e-05 |  | 6.66e-05 ± 2.2e-05 |  | 
A6G C8G A39C U55C C70A | < 1e-05 |  | < 1e-05 |  | 
A6G G35A | < 1e-05 | < 1e-05 | < 1e-05 | < 1e-05 | < 1e-05
C11U C34G G41A U47G | < 1e-05 | < 1e-05 | < 1e-05 | < 1e-05 | 
A15G G32C G41A G60A C71U | < 1e-05 |  |  |  | 
C10U C50G U57G | 0.000105 ± 2.4e-05 |  | 4.71e-05 ± 1.6e-05 |  | 
C61U U65A | < 1e-05 |  | < 1e-05 | < 1e-05 | 
A14U G29U G44U U56A | < 1e-05 |  |  |  | 
A15G G32U U56G G60U | < 1e-05 |  |  |  | 
A15G U47A | 0.000718 ± 0.00011 | 0.0116 ± 0.0042 | 0.03 ± 0.0073 |  | 
A6C G35U A36C | < 1e-05 | < 1e-05 | < 1e-05 |  | 
A15U G37C G38U | < 1e-05 |  |  |  | 
U57G C61U | < 1e-05 |  |  |  | 
G29C G40C U65C | < 1e-05 |  |  |  | 
C16G G51A | < 1e-05 |  | < 1e-05 |  | < 1e-05
U56C G62C | < 1e-05 |  | < 1e-05 | < 1e-05 | 
G43C | < 1e-05 | < 1e-05 |  | < 1e-05 | < 1e-05
G13U G35U G63C A64U | < 1e-05 |  |  |  | 
G29A U55C C61G | < 1e-05 |  |  |  | 
U47A G62U | < 1e-05 | < 1e-05 | < 1e-05 | < 1e-05 | < 1e-05
C8A C11G G38U G60A | < 1e-05 |  |  | < 1e-05 | < 1e-05
